The record followed here is US20130244255A1, “ANTIBODIES DIRECTED TO GPNMB AND USES THEREOF” (priority 2006, published 2013).

Assay [1] deals with GPNMB (CG56972) as expressed by human cell lines (human) (UniProt Q14956). The assay can be described thus: FACS on UACC-62 cells, antibody 1 ug/mL.
The target is the same in assay [2]. The assay can be described thus: flow cytometry on SK-MEL-2 cells, anti human IgG PE; control sample.
The target is the same in assay [3]. The assay can be described thus: flow cytometry on HEK293 cells transfected with GPNMB plasmid, secondary antibody alone (background); on empty-vector cells printed as 5.86.
Assay [4] has the same target. In words: flow cytometry on HEK293 cells transfected with GPNMB plasmid, PE-conjugated secondary antibody; the same sample on empty-vector cells is printed as 7.96. (Flow cytometry measures light scatter and fluorescence of single cells or particles in a stream.)

Sequence of GPNMB (CG56972) as expressed by human cell lines (human) (Q14956 23-492): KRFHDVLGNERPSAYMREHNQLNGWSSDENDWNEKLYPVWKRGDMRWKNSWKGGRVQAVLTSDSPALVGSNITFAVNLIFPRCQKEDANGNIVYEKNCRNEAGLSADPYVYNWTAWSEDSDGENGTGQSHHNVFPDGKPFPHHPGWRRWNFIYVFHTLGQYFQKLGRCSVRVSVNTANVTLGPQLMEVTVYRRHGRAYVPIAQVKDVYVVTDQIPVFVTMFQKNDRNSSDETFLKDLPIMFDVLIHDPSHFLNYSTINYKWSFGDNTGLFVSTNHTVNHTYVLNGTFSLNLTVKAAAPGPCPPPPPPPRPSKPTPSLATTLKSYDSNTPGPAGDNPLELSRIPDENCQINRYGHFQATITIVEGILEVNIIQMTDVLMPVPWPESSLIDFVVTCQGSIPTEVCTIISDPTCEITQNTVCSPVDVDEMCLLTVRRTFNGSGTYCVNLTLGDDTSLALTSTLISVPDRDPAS

With CR011.2.6.2 (antibody), the Geo Mean Ratio (relative to pK16) in assay [1] was 1.9. Consider Control (antibody), for which, in assay [2], the Geo Mean was 3.03 and the Median stood at 2.84. As for Secondary Ab-PE (antibody), the Geometric mean in assay [3] was 7.69.

Consider isotype-matched control IgG2 antibody, for which, in assay [4], the Geometric mean was 8.63.
